± gives the uncertainty stated by the source.

The series in a line: amyloid nucleation score (Sup35N fusion, yeast selection) (log enrichment); library NNK3; higher = more nucleation; inactive = no reads after selection. The method, boiled down:
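Nucleation score: DiMSum log enrichment of output over input reads, centred on the mode score of non-aggregating sequences. Only sequences with at least 100 input reads were kept. Reads came from Illumina sequencing of plasmid inserts before and after 7 days of growth at 30°C without adenine and uracil, in psi-negative yeast expressing Sup35N fused to peptides of 20 random codons after 24 hours of induction with 100 μM copper sulfate.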

For GTTLHYLSRREYGFTGRILF, the amyloid nucleation score result is “inactive”. The substance GKINLVTCFVCLSTPFKHSL had an amyloid nucleation score of 1.74 ± 0.067.

In the case of YNSIMFNGW, the amyloid nucleation score result was “inactive”. Turning to KALSSDPTICFRRAFIVHCK, the amyloid nucleation score result was “inactive”.

GKFFMVSRYCESSSLRFESM yielded an amyloid nucleation score of 1.15 ± 0.17. As for HCYWLVGSWRYFTALFEGGL, the amyloid nucleation score entry is “inactive”. Consider PTDDGLSNRMKQMSGHRVLH, for which the amyloid nucleation score entry is “inactive”. The same measure for VPPFTLTSVVYLSFCVCGGD: 0.701 ± 0.13; for CGFAHFRNVALGWWYGVTLN: “inactive”. DIVANYQMM: the amyloid nucleation score entry was “inactive”. On to PVDKRTSTAVDRFARAMNCQ, for which the amyloid nucleation score result is “inactive”. As to LAALLKASWVSHVVSWNKRT, the amyloid nucleation score entry was “inactive”. With NRRYFVELCGGNFM, the amyloid nucleation score entry was “inactive”.

On to HSVPLPMLYFHYNMILLMLL, for which the amyloid nucleation score entry was “inactive”. As to LTGVLLMMVLYSRPHLTKAR, the amyloid nucleation score result was “inactive”. With IHTGKMLTYCFKSNLSVRTS, the amyloid nucleation score entry is “inactive”. For the substance IVLSNVRVGIACGDLC, the amyloid nucleation score was 0.182 ± 0.44.

Turning to QTLFRTLWRFIIITAKQSSD, the amyloid nucleation score result is “inactive”. For SYRKEYYKLGHYSRRMQATS, the amyloid nucleation score result is “inactive”.

As to DPIYVANARNHRLS, the amyloid nucleation score result was “inactive”. Under NFFAACNMMVLPFSMDFCSR stands 2.77 ± 0.071; under PRQTVISASQPDLNIRGFLC, “inactive”; under ELLKPCNVCYRWYNTHALLV, 0.724 ± 0.18. The same measure for LKTNCTPNMLFGFLSEMMRC: “inactive”.

Consider GSGEVWWVGCRTFFKTG, for which the amyloid nucleation score result was “inactive”. With YMGILCMGLLNSKW, the amyloid nucleation score is -0.606 ± 0.76. In the case of GSVNLSVKSW, the amyloid nucleation score entry is “inactive”. On to DAIRQTSHMKLRSSYMQARR, for which the amyloid nucleation score result was “inactive”.

Consider VNDVLGNEPFRVVGEEEIPG, for which the amyloid nucleation score entry was “inactive”. As for YLWTTLCKPRVDFRAEYRDL, the amyloid nucleation score worked out at 2.05 ± 0.058. In the case of MRSSIPIYVLMLIALSENSP, the amyloid nucleation score result is “inactive”. Under MILSESKYGFTFRLRVARQV stands “inactive”. In the case of FSLVMDCI, the amyloid nucleation score result was “inactive”. For TTPYWRRECRWSEFGFA, the amyloid nucleation score entry was “inactive”.

In the case of MNLFFGFWLLLSAFVSHQVC, the amyloid nucleation score result was “inactive”. Consider SEDDC, for which the amyloid nucleation score result was “inactive”.

Regarding ALGCPGSQNLYFGSGSPAWS, the amyloid nucleation score result is “inactive”.

Regarding SGFPMVSIFESSI, the amyloid nucleation score entry is “inactive”.

As for DVNFSLC, the amyloid nucleation score was -0.002 ± 0.32. For the substance LDVIFSKTFMEIVTLVVSLD, the amyloid nucleation score entry is “inactive”.

Consider SYMITLLKVIILSWHTYAVM, for which the amyloid nucleation score result was “inactive”. Take SIMIVLCGKLTLNFSLRNVV: the amyloid nucleation score result is “inactive”. Consider SGIFKLNCHKVGLILQSPYR, for which the amyloid nucleation score is 0.055 ± 0.35. Consider CRGTWDNDAVGRVDRNSRKS, for which the amyloid nucleation score result is “inactive”. The same measure for FCEPDWNEMGMDFVRCGPSL: “inactive”; for NAYTAHGYDKLRNQSKVAYR: “inactive”. With MVVLAVGRVKLAVYGCRKHG, the amyloid nucleation score result was “inactive”. On to LTGFIGICQLVSYFNEVALQ, for which the amyloid nucleation score entry was “inactive”. Consider YGNHFSNNDGSIFER, for which the amyloid nucleation score result was “inactive”.

Take YYWMAWRTLGAVRAG: the amyloid nucleation score was -0.458 ± 0.5. As for HFSLSG, the amyloid nucleation score result was “inactive”. FSTVKQLYCFMTPIYASFNS returned an amyloid nucleation score of -0.531 ± 1.

Take LFSEFQ: the amyloid nucleation score amounted to 0.574 ± 0.32. Take FMKCDTTSAAGCRRSSSRDK: the amyloid nucleation score entry was “inactive”. In the case of DVYSYKFDR, the amyloid nucleation score result was “inactive”. VDMSNFRANVVTHSPIGGLR: the amyloid nucleation score entry is “inactive”. As for TYEVRTCWDWQRMGSMYLAR, the amyloid nucleation score result is “inactive”.

Regarding SYLIGIWGFWINGIVFAVCA, the amyloid nucleation score entry is “inactive”. In the case of VFNMLGFSDY, the amyloid nucleation score entry was “inactive”.

RHVVGCSYNVIGCFYVVLRI displayed an amyloid nucleation score of 1.84 ± 0.083. For RFNHMRNGFWRSIS, the amyloid nucleation score result is “inactive”. As for QHSFVNSIFSSLGTLRKNLL, the amyloid nucleation score result was “inactive”. For the substance CNGLFIGPML, the amyloid nucleation score entry is “inactive”. The substance VTIITMEIWL gave an amyloid nucleation score of 1.64 ± 0.06.

As to NIGWSVCERL, the amyloid nucleation score result was “inactive”. Take SWSARVKVLLVVGCNVSVFC: the amyloid nucleation score stood at 0.842 ± 0.2. As for FARVSVESRGGNVTFACLCI, the amyloid nucleation score was 1.73 ± 0.12. The same measure for MVSDIGWYLLQFTERRSCFY: “inactive”; for FLWMSAEGLSK: “inactive”; for WSDQTDRAGHFAVFNLSMGY: “inactive”.

SLYVSVLYIYRDY: the amyloid nucleation score was determined as 1.77 ± 0.077. On to SCWYETMLFSLCKFKYLGLM, for which the amyloid nucleation score entry is “inactive”.

On to TKVNL, for which the amyloid nucleation score result was “inactive”. Regarding YTLYLGCGTNDVWVDAYLYS, the amyloid nucleation score result is “inactive”.

CGMCLGLLHR registered an amyloid nucleation score of 0.898 ± 0.21. On to MSVLC, for which the amyloid nucleation score entry was “inactive”.

For the substance AQNSDHMSKATVH, the amyloid nucleation score entry was “inactive”. In the case of IYSTVSYQGTVWRKYWQMNG, the amyloid nucleation score result is “inactive”. As for NVPKPGTFFCDKCYYGCVWD, the amyloid nucleation score is 0.642 ± 0.48. The same measure for MYETVR: “inactive”; for SGFFMMVYRR: -0.364 ± 0.75.

As to NFWNWLHNPWAPM, the amyloid nucleation score result was “inactive”. Turning to FEMPLMWYCGGFYSSPLLCK, the amyloid nucleation score entry is “inactive”. On to GSHVTKVLTFYSNVWVHFTG, for which the amyloid nucleation score entry is “inactive”. Take SQCYCVYAGVVT: the amyloid nucleation score came to 0.034 ± 0.51. As for GGLSL, the amyloid nucleation score entry was “inactive”. With WCGRETSRQWA, the amyloid nucleation score was 0.033 ± 0.39.

In the case of MFFAGKTPGHVHVWNSANTR, the amyloid nucleation score entry was “inactive”. Take PNNSLETTYFRVTWSFE: the amyloid nucleation score result is “inactive”. On to FGAKR, for which the amyloid nucleation score turned out to be 0.909 ± 0.18. PVVQCNLFFVMVYTLGIRCV had an amyloid nucleation score of -0.579 ± 0.98.

On to VIRPGQYVIWFSRVILSFLF, for which the amyloid nucleation score result was “inactive”. With KCLLGLSLVRAKRSKLWMW, the amyloid nucleation score entry is “inactive”. Under ASTDEDFNTNTECT stands “inactive”; under SFKQIIDRFTSSFIVIFGLR, “inactive”; under YVVEICAV, “inactive”.

Turning to HVFYPALI, the amyloid nucleation score entry is “inactive”. In the case of KITIKFYRCTS, the amyloid nucleation score entry is “inactive”. In the case of MCRTMLSPLMR, the amyloid nucleation score result was “inactive”. As to FVGYINILLIADSALGVRIL, the amyloid nucleation score is 1.64 ± 0.076. On to MIFSTYNNLLWLKSLQSTGG, for which the amyloid nucleation score result was “inactive”. With WKTTMALRSVLPGGYLHFCV, the amyloid nucleation score result is “inactive”. Take CRLANHLEIAVAVTSYEGED: the amyloid nucleation score entry is “inactive”. Take LGSWLWR: the amyloid nucleation score result is “inactive”. As for SKTIYWFPPYPYVQFGCHRR, the amyloid nucleation score entry was “inactive”. As to GVRLNVDRAVKVARELFH, the amyloid nucleation score result is “inactive”. Substance SLNFLR had an amyloid nucleation score of 0.937 ± 0.39. As to DIIYTFHHAVNRLNKIFSV, the amyloid nucleation score entry was “inactive”. CRCPSYMFHA registered an amyloid nucleation score of 0.703 ± 0.17.

Turning to NHVTVYVI, the amyloid nucleation score came to 0.555 ± 0.29. For NVVWIYTIFRGVCFGYRRWA, the amyloid nucleation score result is “inactive”. With WLELVSCS, the amyloid nucleation score entry is “inactive”. Consider VRTDYWVGYVIFYHIVSRGL, for which the amyloid nucleation score entry is “inactive”. Under MCVFNNGVGLPDVGVNLAYN stands “inactive”; under HITGNGPHLRYCARQVLWSL, “inactive”; under SLCRSLGLGLLAPYRFFTWR, “inactive”. The substance VVGNSCVYPVGPRFAE had an amyloid nucleation score of -0.454 ± 0.9.

Consider KYCYIEWN, for which the amyloid nucleation score result was “inactive”. As for ASQAALFGKIHYEASY, the amyloid nucleation score result was “inactive”. With IWQCRYLRMGQ, the amyloid nucleation score result was “inactive”.

Turning to FSILAFMSDLLS, the amyloid nucleation score result is “inactive”. For YSNSLRRTSPQEHS, the amyloid nucleation score entry was “inactive”. For YNVIT, the amyloid nucleation score result was “inactive”. For the substance RILALCGHRGNGLQGYILLD, the amyloid nucleation score was 0.744 ± 0.13. Consider LHMIVALSSSSSMTYDVRVV, for which the amyloid nucleation score result was “inactive”.

Take EWVANPSFGYAEWLLV: the amyloid nucleation score entry was “inactive”. The same measure for FVLICGYFIFIWTVSFNCYW: “inactive”; for YRCSRNVENYGPSKRGYYTE: “inactive”. Under LLIFMFCLAFVFFFMAKDGN stands “inactive”; under WVVEQVDLLSGMVIGLKNSR, “inactive”. As to RVEAPVMPKRRSIHQCSLKK, the amyloid nucleation score result is “inactive”. On to RRWGFCTLVIVCRAGCYVLS, for which the amyloid nucleation score result is “inactive”. On to DCYKRSVMLKAARSWVNRSL, for which the amyloid nucleation score entry is “inactive”.
